Assay results reported in paper PMC5630700 (Frontiers in Immunology, 2017).

B1: sdAb B as a BAP fusion (from pecan126) (VHH)
VHH: KVQLQESGGGLVQAGGSLRLSCAASGGTFSINTLGWYRRAPGKEREFVARISSGGITRYADSVKGRFTISRDNGKNTVYLDMNSLKPEDTAVYYCMYRNWGGGLDVYWGQGTQVTVSS
notes: also called wild-type sdAb B; source: E. coli HBV88 (pecan126), purified
B2: sdAb A as a BAP fusion (from pecan126) (VHH)
VHH: EVKLQESGGGLVQAGESLRLSCAVPPEVFDIRTVAWYRQVPLGKGRELLSSITPWNKTTYEDSVKDRFTISRDNAKYTVYLQMNDLKPEDTAVYYCAQGWGIASMRYWGQGTQVTVSS
notes: also called wild-type sdAb A; source: E. coli HBV88 (pecan126), purified
B3: sdAb C as a BAP fusion (from pecan126) (VHH)
VHH: KVQLQESGGGLVQVGGSLRLSCKASGFTFRSSAMGWYRRAPGKQRELVASLTTTGTADYGDFVKGRFTISRDNAENTVDLHMNSLKPEDTAVYYCHEDPYGMESLRYWGQGTQVTVSS
notes: also called wild-type sdAb C; source: E. coli HBV88 (pecan126), purified
B4: sdAb B–Gaussia luciferase fusion (glucibody, pecan35) (VHH)
VHH: B1 VHH
notes: also called sdAb B glucibody; sdAb B–gluc; source: E. coli Tuner + pRARE, periplasmic (pecan35), purified
B5: sdAb A–Gaussia luciferase fusion (glucibody, pecan35) (VHH)
VHH: B2 VHH
notes: also called sdAb A glucibody; sdAb A–gluc; source: E. coli Tuner + pRARE, periplasmic (pecan35), purified
B6: sdAb C–Gaussia luciferase fusion (glucibody, pecan35) (VHH)
VHH: B3 VHH
notes: also called sdAb C glucibody; sdAb C–gluc; source: E. coli Tuner + pRARE, periplasmic (pecan35), purified

target: T1, nluc-NP632 fusion protein (Marburg virus Musoke-80, UniProt P27588); assay: ELISA; settings: both partners purified
T1 construct: source: E. coli, cytosolic (pENCO derivative), purified

Going from B1 to B2, the EC50 falls from 28.5 nM to 12.8 nM (2.2-fold).

B3 showed an EC50 of 26.6 nM.

target: T2, mbp-NP632 fusion protein (Marburg virus Musoke-80, UniProt P27588); assay: ELISA; settings: both partners purified
T2 construct: source: E. coli (pE), purified
T2 sequence (P27588 632-695): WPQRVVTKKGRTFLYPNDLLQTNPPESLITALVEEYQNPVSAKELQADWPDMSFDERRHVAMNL

First: B4
Second: B5
The EC50 of the first is 12-fold higher: 189 nM for the first, 15.4 nM for the second. The second is the more potent here.

B6 showed an EC50 of 22.3 nM.
